# Measurements from patent US20190233528A1 (published 2019).
# T1: recombinant biotinylated human CD70 protein (human) (UniProt P32970)
# T1 sequence (chain, biotinylated (site not stated)): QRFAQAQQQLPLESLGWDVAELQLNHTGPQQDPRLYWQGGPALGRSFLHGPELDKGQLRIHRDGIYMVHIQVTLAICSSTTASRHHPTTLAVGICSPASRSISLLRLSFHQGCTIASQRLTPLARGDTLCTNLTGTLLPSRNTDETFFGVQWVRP
# T2: human CD70 expressed on parental (WT) Jurkat cells (human, UniProt P32970 1-193)
# T2 sequence: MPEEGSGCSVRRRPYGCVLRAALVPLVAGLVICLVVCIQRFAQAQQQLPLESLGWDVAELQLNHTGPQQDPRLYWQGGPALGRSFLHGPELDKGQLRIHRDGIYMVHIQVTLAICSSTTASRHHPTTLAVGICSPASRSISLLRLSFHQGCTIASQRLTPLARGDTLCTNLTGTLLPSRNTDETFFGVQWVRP
# T3: recombinant biotinylated human CD70 protein (human, UniProt P32970 39-193, biotinylated (site not stated))
# T3 construct: also called recombinant biotinylated hCD70 protein
# T3 sequence: T1 sequence (chain, biotinylated (site not stated))
# T4: recombinant human CD70 (AviTag, polyhistidine tag and chicken tenascin trimerization domain fused to the … (chicken; human, UniProt P10039 110-139, limits assumed)
# T4 construct: domain: trimerization domain; Expressed in Expi293, purified by IMAC and SEC; Copies 3 is inferred from the trimerization domain; not shown: AviTag; polyhistidine tag
# T4 sequence: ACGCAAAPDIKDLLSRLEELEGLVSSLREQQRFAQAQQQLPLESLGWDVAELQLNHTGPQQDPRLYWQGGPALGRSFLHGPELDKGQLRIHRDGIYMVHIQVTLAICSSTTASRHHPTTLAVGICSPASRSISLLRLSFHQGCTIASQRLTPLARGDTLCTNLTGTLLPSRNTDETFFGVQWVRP
# B1: 45F11 CD70-specific CAR (other)
# chain: QVQLRGSGPGLVKPSETLSLTCTVSDDSISVYYWSWIRQPAGKGLEWIGRVYSSGNINYNPSLESRVTMSVDTSKSRFSLNLSSVTAADTAVYYCARGLDAFDIWGQGTMVTVSSGGGGSGGGGSGGGGSGGGGSEIVMTQSPATLSMSLGERATLSCRASQSVSSSLAWYQQKPGQAPRLLIYGASTRATGIPARFGGSGSGTEFTLTISSLQSEDFAVYYCQQYINWPHFGGGTKVEIKTTTPAPRPPTPAPTIASQPLSLRPEACRPAAGGAVHTRGLDFACDIYIWAPLAGTCGVLLLSLVITLYCKRGRKKLLYIFKQPFMRPVQTTQEEDGCSCRFPEEEEGGCELRVKFSRSADAPAYQQGQNQLYNELNLGRREEYDVLDKRRGRDPEMGGKPRRKNPQEGLYNELQKDKMAEAYSEIGMKGERRRGKGHDGLYQGLSTATKDTYDALHMQALPPR
# B2: 72C2 CD70-specific CAR (other)
# chain: QVQLVQSGAEVKKPGSSVKVSCEASGGTFITYAISWVRQAPGQGLEWMGGIIPFFGTANYAQKFQGRVTITADKSTSTASMELRSLRSEDTAMYYCAQWELFFFDFWGQGTPVTVSSGGGGSGGGGSGGGGSGGGGSEIVMTQSPDTLSVSPGERAILSCRASQSVSSNLAWYQQKPGQAPRLLIYSASTRASGIPARFSGSGSGTEFTLSISSLQSEDFAVYYCQQYDNWPPLTFGGGTKVEIKTTTPAPRPPTPAPTIASQPLSLRPEACRPAAGGAVHTRGLDFACDIYIWAPLAGTCGVLLLSLVITLYCKRGRKKLLYIFKQPFMRPVQTTQEEDGCSCRFPEEEEGGCELRVKFSRSADAPAYQQGQNQLYNELNLGRREEYDVLDKRRGRDPEMGGKPRRKNPQEGLYNELQKDKMAEAYSEIGMKGERRRGKGHDGLYQGLSTATKDTYDALHMQALPPR
# B3: 42C3 CD70-specific CAR (other)
# chain: EVQLVESGGGLVQPGGSLRLSCAASGFTFRNSWMSWVRQAPGKGLEWVANIKRDGSEKYYVDSVKGRFTISRDNAKNSLYLQMNSLRAEDTAVYYCARDQTGSFDYWGQGTLVTVSSGGGGSGGGGSGGGGSGGGGSDVVMTQSPLSLPVTLGQPASISCRSSQSLVYSDENTYLNWFQQRPGQSLRRLIYQVSNRDSGVPDRFSGSGSGTDFTLKISRVEAEDVGVYFCMQGTYWPPTFGGGTKVEIKTTTPAPRPPTPAPTIASQPLSLRPEACRPAAGGAVHTRGLDFACDIYIWAPLAGTCGVLLLSLVITLYCKRGRKKLLYIFKQPFMRPVQTTQEEDGCSCRFPEEEEGGCELRVKFSRSADAPAYQQGQNQLYNELNLGRREEYDVLDKRRGRDPEMGGKPRRKNPQEGLYNELQKDKMAEAYSEIGMKGERRRGKGHDGLYQGLSTATKDTYDALHMQALPPR
# B4: 64F9 CD70-specific CAR (other)
# chain: EVQLLESGGGLVQPGESLRLSCEVSGFTFTSYAMSWVRQVPGKGLEWVSIISGVAFTTYYADSVKGRFTISRDHSKNTLYLQMNGLRAEDTAVYYCVKVDGEVYWGQGTLVTVSSGGGGSGGGGSGGGGSGGGGSDIQMTQSPSSLSASVGDRVTITCQASQDISNYLNWYQQKPGKAPKILIYGASNLETGVPSRFSGSGSGTDFTFAISSLQPEDVATYYCQQYDNFPITFGQGTRLEIKTTTPAPRPPTPAPTIASQPLSLRPEACRPAAGGAVHTRGLDFACDIYIWAPLAGTCGVLLLSLVITLYCKRGRKKLLYIFKQPFMRPVQTTQEEDGCSCRFPEEEEGGCELRVKFSRSADAPAYQQGQNQLYNELNLGRREEYDVLDKRRGRDPEMGGKPRRKNPQEGLYNELQKDKMAEAYSEIGMKGERRRGKGHDGLYQGLSTATKDTYDALHMQALPPR
# notes: Chimeric antigen receptor on transduced Jurkat cells; the signal peptide is left out
# B5: 17G6 CD70-specific CAR (other)
# chain: EVQLVESGGGLVQPGGSLRLSCVASGFTFSSYWMSWVRQAPGKGLEWVASIKQDGSEKYYVDSVKGRFTISRDNAKNSVYLQMNSLRAEDTGVYYCAREGVNWGWRLYWHFDLWGRGTLVTVSSGGGGSGGGGSGGGGSGGGGSDIVMTQSPDSLAVSLGERATINCKSSQSVLYSYNNKNYVAWYQQKPGQPPNLLIFWASTRESGVPDRFSGSGSGTDFTLTISSLQAEDVAVYYCQQYYSTLTFGGGTKVEIKTTTPAPRPPTPAPTIASQPLSLRPEACRPAAGGAVHTRGLDFACDIYIWAPLAGTCGVLLLSLVITLYCKRGRKKLLYIFKQPFMRPVQTTQEEDGCSCRFPEEEEGGCELRVKFSRSADAPAYQQGQNQLYNELNLGRREEYDVLDKRRGRDPEMGGKPRRKNPQEGLYNELQKDKMAEAYSEIGMKGERRRGKGHDGLYQGLSTATKDTYDALHMQALPPR
# notes: as for B4
# B6: 4F11 CD70-specific CAR (other)
# chain: QVTLKESGPVLVKPTETLTLTCTVSGFSLSNARMGVTWIRQPPGKALEWLAHIFSNDEKSYSTSLKSRLTISKDTSKTQVVLTMTNMDPVDTATYYCARIRDYYDISSYYDYWGQGTLVSVSSGGGGSGGGGSGGGGSGGGGSDIQMTQSPSAMSASVGDRVTITCRASQDISNYLAWFQQKPGKVPKRLIYAASSLQSGVPSRFSGSGSGTEFTLTISSLLPEDFATYYCLQLNSFPFTFGGGTKVEINTTTPAPRPPTPAPTIASQPLSLRPEACRPAAGGAVHTRGLDFACDIYIWAPLAGTCGVLLLSLVITLYCKRGRKKLLYIFKQPFMRPVQTTQEEDGCSCRFPEEEEGGCELRVKFSRSADAPAYQQGQNQLYNELNLGRREEYDVLDKRRGRDPEMGGKPRRKNPQEGLYNELQKDKMAEAYSEIGMKGERRRGKGHDGLYQGLSTATKDTYDALHMQALPPR
# notes: as for B4
# B7: 10H10 CD70-specific CAR (other)
# chain: EVQLVESGGGLVQPGGSLRLSCAVSGFTFSNHNIHWVRQAPGKGLEWISYISRSSSTIYYADSVKGRFTISRDNAKNSLYLQMNSLRDEDTAVYYCARDHAQWYGMDVWGQGTTVTVSSGGGGSGGGGSGGGGSGGGGSDIQMTQSPSSVSASVGDRVTITCRASQGISSWLAWYQQKPGKAPKVLIYAASSLQSGVPSRFSGSGSGTDFTLTISSLQPEDFATYYCQQAFSFPFTFGPGTKVDIKTTTPAPRPPTPAPTIASQPLSLRPEACRPAAGGAVHTRGLDFACDIYIWAPLAGTCGVLLLSLVITLYCKRGRKKLLYIFKQPFMRPVQTTQEEDGCSCRFPEEEEGGCELRVKFSRSADAPAYQQGQNQLYNELNLGRREEYDVLDKRRGRDPEMGGKPRRKNPQEGLYNELQKDKMAEAYSEIGMKGERRRGKGHDGLYQGLSTATKDTYDALHMQALPPR
# notes: as for B4
# B8: P07D03 anti-CD70 scFv-Fc fusion (Fc fusion)
# chain: EVQLVQSGAEVKKPGESLKISCKGSGYRFTSYWIGWVRQMPGKGLEWMGSIYPDDSDTRYSPSFQGQVTISADKSISTAYLQWSSLKASDTAMYYCASSTVDYPGYSYFDYWGQGTLVTVSSGGGGSGGGGSGGGGSGGGGSELQSVLTQPPSASGTPGQRVTISCSGSRSNIGSNYVYWYQQLPGTAPKLLIYRNNQRPSGVPDRFSGSKSGTSASLAISGLRSEDEADYYCASWDGSLSAVVFGTGTKLTVL
# notes: scFv-Fc expressed in Expi293; not shown: part of the hinge and Fc from a modified human IgG2
# B9: P02B10 anti-CD70 scFv-Fc fusion (Fc fusion)
# chain: EVQLLESGGGLVQPGGSLRLSCAASGFAFSNYAMSWVRQAPGKGLEWVSAIRGGGGSTYYADSVKGRFTISRDNSKNTLYLQMNSLRAEDTAVYYCARDFISGTWYPDYWGQGTLVTVSSGGGGSGGGGSGGGGSGGGGSELQSVLTQPPSASGTPGQRVTISCSGSSSNIGSNYVYWYQQLPGTAPKLLIYRNNQRPSGVPDRFSGSKSGTSASLAISGLRSEDEADYYCAAWDDSLSGVVFGGGTKLTVL
# notes: as for B8
# Target: T1, recombinant biotinylated human CD70 protein (human)
# Test: flow cytometry: CAR-transduced Jurkat cells incubated with recombinant biotinylated human CD70, streptavidin-PE; percent of cells binding
row,Protein binding (%),Binder
1,1.29,B1
2,0.09,B2
3,1.48,B3

# Target: T2, human CD70 expressed on parental (WT) …
# Test: cell-based or functional assay
row,Activation ratio (WT/KO),Binder
1,3.89,B4
2,6.67,B1
3,6.18,B2
4,6.84,B5
5,11.9,B6
6,7.32,B7
7,5.25,B3

# Target: T3, recombinant biotinylated human CD70 …
# Test: flow cytometry: CAR-transduced Jurkat cells incubated with recombinant biotinylated human CD70, streptavidin-PE; percent of cells binding
# Experimental: On Day 5, transduced cells were stained with human anti-CD69 antibody conjugated to PE-Cy7 and acquired on a flow cytometer to obtain percentage of CD69+ population for each CAR. […] Activation ratios (WT activation/KO activation) and protein binding were used to rank CARs.
# Activation ratio and protein binding of hybridoma CARs were determined in the Jurkat screen and used for in vitro characterization of CARs. Activation ratio was determined by calculating the ratio of the percentage of CD69 expression on WT Jurkat cells transduced with CD70 CAR (WT) to that on CD70 knockout Jurkat cells transduced with CD70 CAR (KO). A higher activation ratio indicates target-dependent activation. […] Protein binding values indicate the percentage of CD3+ CAR T cells that bind to human CD70 protein.
row,Protein binding (%),Binder
1,6.24,B4
2,37.6,B5
3,47.1,B6
4,17.9,B7

# Target: T4, recombinant human CD70 (AviTag, …)
# Test: SPR (Biacore 8K, 37 C): CD70 captured via anti-AviTag antibody on C1 chip, scFv-Fc as analyte; 1:1 steady state affinity fit (SS KD)
# Experimental: The antibody binding kinetics were determined by surface plasmon resonance (Biacore 8K, GE Healthcare Bio-Sciences, Pittsburgh Pa.) at 37° C. in HBS-T+ (0.01 M HEPES pH 7.4, 0.15 M NaCl, 0.05% v/v Tween20, 1 mg/mL BSA). Recombinant human CD70 diluted in HBS-T+ was captured on a C1 chip immobilized with an anti-AviTag™ antibody. Purified anti-CD70 scFv-Fc fusions were serially diluted into HBS-T+, injected at 30 uL/min for 2-4 min, dissociation monitored for 10 min then the surface regenerated with 75 mM phosphoric acid between injections. Buffer cycles were collected for each anti-CD70 scFv-Fc fusion for double-referencing purposes (double-referencing as described in Myszka, D. G. Improving biosensor analysis. J. Mol. Recognit. 12, 279-284 (1999)). Kinetic association rates (kₒₙ) and dissociation rates (koff) were obtained simultaneously by fitting the double-referenced sensorgrams globally to a 1:1 Langmuir with mass transport model using Biacore 8K Evaluation Software (GE Healthcare Bio-Sciences, Pittsburgh Pa.) then used to calculate an equilibrium dissociation constant (KD) from the kinetic rate constants (KD=koff/kₒₙ). The data was fit to a 1:1 steady state affinity model using Biacore 8K Evaluation Software to determine a steady state equilibrium dissociation constant (SS KD) as needed.
row,Kd [nM],Binder
1,1070,B8
2,355,B9
